Columns and labels:
[1] = biological target: T1, human Ig1,2 TrkA (recombinant D4-D5 domain of human TrkA receptor) (human, UniProt P04629 191-392); assay: SPR (Biacore X-100); scFv immobilised on CM5 chip, human Ig1,2 TrkA injected
T1 construct: also called hTrkA Ig1,2; TrkA Ig1,2
T1 chain: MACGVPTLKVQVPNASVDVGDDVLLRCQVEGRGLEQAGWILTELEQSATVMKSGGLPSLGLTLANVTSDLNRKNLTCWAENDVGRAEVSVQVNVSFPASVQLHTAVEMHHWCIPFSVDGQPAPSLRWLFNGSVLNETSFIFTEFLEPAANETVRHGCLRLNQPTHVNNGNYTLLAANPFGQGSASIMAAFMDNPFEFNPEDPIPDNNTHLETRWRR
Method: (§1) The antibodies were also shown to be specific for hTrkA and mTrkA by relative binding to the BIACore sensor chips coated with the appropriate antigen. Antibodies were immobilized by ammine coupling to Biosensor CM5 sensorchips (Pharmacia) according to the manufacturers instructions. Anti-TrkA scFv proteins were diluted at 20-50 μg/ml in suitable pre-concentration buffer (at least 2 pH unit below the pI of the scFv in order to get a net positive charge), chosen among the Acetate buffers. The scFvs were immobilized at 100 RU to get a low density immobilization. As binder, the recombinant protein consisting of D4-D5 domain of human and murine TrkA receptor (hTrkA Ig1,2 and mTrkA Ig1,2 respectively) were injected over the immobilized scFv with a contact time of 60 seconds and with a dissociation time of 400 seconds and the assay workflow placed 5 serial dilutions of the TrkA Ig1,2 (starting in the micromolar range and diluting 1:2 each time). The regeneration condition were mild (contact time 30 seconds, 10 mM Glycine pH2). On the basis of the resulting sensorgrams, the concentrations of TrkA Ig1,2 were adjusted to optimize, contact time, dissociation time and regeneration. Data were analysed by Bioevaluation Software (see results on Table II and Table III). The quality of the data fitting were checked by the value of Chi² and of the U-value.
(§2) We have carried out surface plasmon resonance (SPR) analyses to determine the binding kinetics of a panel of isolated anti-TrkA scFvs (SEQ ID NOs: 1, 2, 3, 4, 5, 6, 7, 8, 9, 10, 11, 12, 13, 14, 15 and 16). The scFvs were immobilized on a CM5 chip followed by injections at various concentration of human and murine Ig 1,2 TrkA (SEQ ID NO: 78) and mouse Ig1,2 TrkA (SEQ ID NO: 79).

[2] = biological target: T2, mouse Ig1,2 TrkA (recombinant D4-D5 domain of murine TrkA receptor) (mouse, UniProt Q3UFB7 193-413); assay: SPR (Biacore X-100); scFv immobilised on CM5 chip, mouse Ig1,2 TrkA injected
T2 construct: also called mTrkA Ig1,2
Method: as §1, §2

[3] = biological target: T3, human TrkC immunoadhesin (human; Camelus dromedarius, UniProt Q16288 32-429); assay: specificity ELISA, antigens coated at 2 µg/mL, scFv at 50 ug/mL (upper panel) and 5 ug/mL (lower panel), OD 450 nm
T3 construct: extracellular domain; also called hTrkC-Fc; TrkC immunoadhesins; not shown: Fc portion (immunoglobulin heavy chain constant region) of IgG2a camel antibody (Camelus dromedarius)
Method: (§3) FIG. 3. Specificity ELISA of isolated anti-TrkA scFvs versus human TrkA immunoadhesin (hTrkA-Fc), human TrkB immunoadhesins (hTrkB-Fc), human TrkC immunoadhesins (hTrkC-Fc) and human p75 immunoadhesins (hp75-Fc). Human antigens were coated at 2 μg/mL. Anti-TrkA scFvs were used at 50 μg/mL (upper panel) and/or 5 μg/mL (lower panel). The mean absorbance at 450 nm of the experiments performed in duplicate wells is shown with SD indicated by the bars.

[4] = biological target: T4, human p75 immunoadhesin (human; Camelus dromedarius, UniProt P08138 29-250); assay: as above
T4 construct: extracellular domain; also called hp75-Fc; p75NTR immunoadhesin; not shown: Fc portion (immunoglobulin heavy chain constant region) of IgG2a camel antibody (Camelus dromedarius)
T4 sequence (looked up): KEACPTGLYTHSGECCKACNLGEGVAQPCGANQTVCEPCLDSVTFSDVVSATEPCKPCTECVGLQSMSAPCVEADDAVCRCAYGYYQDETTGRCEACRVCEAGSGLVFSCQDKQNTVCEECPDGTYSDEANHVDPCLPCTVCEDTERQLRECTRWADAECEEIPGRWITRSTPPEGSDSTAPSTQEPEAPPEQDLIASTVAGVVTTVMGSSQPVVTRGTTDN
Method: as §3

[5] = biological target: T5, human TrkA receptor (native, on TF-1 cells) (human, UniProt P04629 33-796); assay: chip-based flow cytometry (Agilent Bioanalyzer 2100) on TF-1 cells expressing human TrkA; scFv at 5 µg/ml per paragraph 159
T5 construct: also called TF1 expressing TrkA receptor; TF-1 cell line expressing human TrkA receptor
Method: FIG. 5. FACS analysis performed with Bioanalyzer 2100. A cell fluid chip-based fluorescent cytometric assay that runs on Bioanalyzer 2100 (Agilent) for fast characterization of small population cell phenotypes was assessed. The assay determines the expression of specific cell surface markers. In this experiment, the specificity of scFvs on TF-1 cell line expressing human TrkA receptor was assessed. Six samples can be analyzed on each chip in one automated process. Results were in good agreement with conventional flow cytometry in quantisation.
10⁶ cells/sample=tot: 6×10⁶ cells are first centrifuged at 350 g for 5 min at room temperature (RT) and wash with 12 ml of Staining Buffer (SB) at RT. The pellet was resuspended in 3 ml of SB at 4° C. and aliquot 0.5 ml of suspension in 1.5 ml conical tubes. Cells were centrifuged again at 350 g for 5 min at 4° C. and the pellet was resuspended in 1 ml HBSS at 4° C. 125 μl 16% p-formaldehyde (final conc 1.7%) was added into each tube and then the sample was incubated for 10 min at 4° C. on tube rotator. After 10 minutes, 75 μl of 10% detergent solution-Tween 20 (final conc 0.6%) was added and the samples were then incubated for 10 min at 4° C. on tube rotator. Samples were then washed once with FACS Buffer (0.8 ml/sample) at 4° C. and then centrifuged at 350 g for 5 min at 4° C. Cells were resuspended with 80 μl/sample of FACS Buffer. 20 μl of a 5× primary antibody solution were added (final concentration of scFvs is 5 μg/ml). After incubation for 1 hour at 4° C. on tube rotator samples were washed with FACS Buffer (0.5 ml/sample) at 4° C. and then centrifuged 5 min at 350 g at 4° C. Cells were resuspended with 80 μl/sample of FACS Buffer. 20 μl of a 5× secondary antibody solution were added. Final concentration of mouse anti-V5 antibody is 0.20 μg/ml. The samples were incubated for 1 hour at 4° C. on tube rotator. After incubation for 1 hour at 4° C. on tube rotator samples were washed with FACS Buffer (0.5 ml/sample) at 4° C. and then centrifuged 5 min at 350 g at 4° C. Cells were resuspended with 80 μl/sample of FACS Buffer. 20 μl of a 5× tertiary antibody solution were added. Final concentration of anti-mouse IgG-Cy5 is 4 μg/ml (1:250 diluted). The samples were incubated for 1 hour at 4° C. on tube rotator.

[6] = biological target: T6, human TrkB immunoadhesin (human; Camelus dromedarius, UniProt Q16620 32-430); assay: specificity ELISA, antigens coated at 2 µg/mL, scFv at 50 ug/mL (upper panel) and 5 ug/mL (lower panel), OD 450 nm
T6 construct: extracellular domain; also called hTrkB-Fc; TrkB immunoadhesins; not shown: Fc portion (immunoglobulin heavy chain constant region) of IgG2a camel antibody (Camelus dromedarius)
Method: as §3

T5 sequence (P04629 33-796 limits assumed): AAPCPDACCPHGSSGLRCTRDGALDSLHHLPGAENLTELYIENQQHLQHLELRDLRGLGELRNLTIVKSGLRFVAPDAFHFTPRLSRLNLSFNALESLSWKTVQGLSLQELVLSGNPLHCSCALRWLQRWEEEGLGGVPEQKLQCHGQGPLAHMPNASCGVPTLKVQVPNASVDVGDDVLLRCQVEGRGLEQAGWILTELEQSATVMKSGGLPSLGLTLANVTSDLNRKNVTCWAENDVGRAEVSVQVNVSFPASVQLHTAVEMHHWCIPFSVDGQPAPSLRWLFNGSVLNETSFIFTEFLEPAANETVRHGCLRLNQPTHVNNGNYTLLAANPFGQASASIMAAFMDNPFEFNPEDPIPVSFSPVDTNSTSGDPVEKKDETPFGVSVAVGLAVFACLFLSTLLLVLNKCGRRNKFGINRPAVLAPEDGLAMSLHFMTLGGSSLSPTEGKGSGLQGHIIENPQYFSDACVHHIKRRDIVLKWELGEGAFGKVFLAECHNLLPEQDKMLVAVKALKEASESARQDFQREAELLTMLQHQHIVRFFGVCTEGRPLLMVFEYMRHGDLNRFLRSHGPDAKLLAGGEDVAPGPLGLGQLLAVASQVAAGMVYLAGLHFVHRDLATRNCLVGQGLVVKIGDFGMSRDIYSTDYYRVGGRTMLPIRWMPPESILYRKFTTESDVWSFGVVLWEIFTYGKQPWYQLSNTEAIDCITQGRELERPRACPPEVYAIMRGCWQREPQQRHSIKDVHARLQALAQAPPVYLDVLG
T2 sequence (Q3UFB7 other isoform, or with tags, fused parts or gaps limits assumed): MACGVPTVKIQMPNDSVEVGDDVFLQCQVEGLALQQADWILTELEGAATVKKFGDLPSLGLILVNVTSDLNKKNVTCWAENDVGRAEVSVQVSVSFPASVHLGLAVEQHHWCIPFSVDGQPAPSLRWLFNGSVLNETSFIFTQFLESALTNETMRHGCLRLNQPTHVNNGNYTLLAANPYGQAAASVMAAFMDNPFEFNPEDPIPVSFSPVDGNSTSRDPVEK
T6 sequence (Q16620 32-430): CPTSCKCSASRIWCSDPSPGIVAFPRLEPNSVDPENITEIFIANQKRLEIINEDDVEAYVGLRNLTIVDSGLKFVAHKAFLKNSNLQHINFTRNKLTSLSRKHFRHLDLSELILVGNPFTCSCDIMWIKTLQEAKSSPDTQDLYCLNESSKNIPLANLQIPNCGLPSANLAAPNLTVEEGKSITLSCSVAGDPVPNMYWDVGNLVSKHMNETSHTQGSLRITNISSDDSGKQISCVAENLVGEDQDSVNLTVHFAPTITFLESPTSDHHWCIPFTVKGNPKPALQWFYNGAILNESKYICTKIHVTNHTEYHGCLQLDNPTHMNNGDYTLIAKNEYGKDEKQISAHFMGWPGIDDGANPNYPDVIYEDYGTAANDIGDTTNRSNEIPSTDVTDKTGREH

B1: anti-TrkA scFv CRB0089 (scFv)
scFv: QTVVTQEPSVSGAPGQRVTISCTGSSSIIGAGYEVHWYQHLPGTAPKLLIYDSINRPSGVPDRFSGSKSGTSASLAITGLQAEDEADYYCQSSAIFGGGTKLTVLSGGSTSGSGKPGSGEGSSGTQVQLQESGPGLVKPSQTLSLTCAISGDSVSSNSAAWNWIRQSPSRGLEWLGRTFHRSRWYNEYPVSVRSRITINPDTSNNQFTLQLNSVTPDDTAVYYCARAPVAGLTFDIWGQGTMVTVSS
notes: From hSPLINT_09 selection
Which Kd [1] does the source give for B1 here?
The Kd was 16.9 nM.

What about the koff [1] of the same binder?
The koff was 7.76e-05 s⁻¹.

What about the kon [1] of the same binder?
The kon was 4600 M⁻¹ s⁻¹.

And the Kd [2]?
The Kd was 14.2 nM.

What about the koff [2] of the same binder?
The koff was 3.19e-05 s⁻¹.

And the kon [2]?
The kon was 2250 M⁻¹ s⁻¹.

Does B1 bind [3]?
Result: no binding (tested: 50 ug/mL)

Does B1 bind [4]?
Result: no binding (tested: 50 ug/mL)

Does B1 bind [5]?
Result: binds

B2: anti-TrkA scFv CRB0084 (scFv)
scFv: QPVLTQPPSVSVAPRQTATITCGGNYIGSKSVHWYQQKPGQDPVLVVNDDSDRPSGIPERFSGSNSANTATLTISGVEAGDEADYYCQVWDSSTEPVVFGGGTKLTVLSGGSTSGSGKPGSGEGSSGTQVQLQQWGAGLLRPSETLSLTCTVSGGSFSDSYWTWIRQSPGKGLEWIGENNHRGSTNYSPTLRSRLSISIDSSKNQFSLKLSSVTAADTAVYYCARVPYRLRSRIFDVWGQGTMVTVSS
notes: From hSPLINT_09 selection
What does the source list for B2?
Kd [1]: 1700 nM; koff [1]: 0.0163 s⁻¹; kon [1]: 9600 M⁻¹ s⁻¹; Kd [2]: 2.18 nM; koff [2]: 2.33e-05 s⁻¹; kon [2]: 10700 M⁻¹ s⁻¹; binding result [6]: no binding (tested: 50 ug/mL); binding result [3]: no binding (tested: 50 ug/mL); binding result [5]: binds

B3: anti-TrkA scFv CRB0036 (scFv)
scFv: DIVMTQAAPSVPVTPGESVSISCRSSKSLLHSSGITSLYWYLQRPGQSPQLPIYRMSSLASGVPDRFSVSGSGTAFTLRISRVEAEDVGVYYCMQHLEYPLTFGAGTKLELKRSGGSTSGSGKPGSGEGSSGTQVQLQQSGAELLKPGASVKISCKATGYTFSNYWIEWVKQRPGHGLEWIGEILPGSGSAHYSEKFKDKATFTADTSSNTAYMQLSSLTSEDSAVYFCTRSPPNPGYWGQGTSVTVSS
notes: From mSPLINT selection
B3 was tested. Which Kd [1] did it give?
Its Kd is 13.7 nM.

What about the koff [1] of the same binder?
Its koff is 3.75e-05 s⁻¹.

And the kon [1]?
The kon was 2730 M⁻¹ s⁻¹.

What about the Kd [2] of the same binder?
The Kd was 1.1 nM.

And the koff [2]?
Its koff is 7.07e-06 s⁻¹.

What about the kon [2] of the same binder?
The kon was 6440 M⁻¹ s⁻¹.

Does B3 bind [4]?
Result: no binding (tested: 50 ug/mL)

Does B3 bind [5]?
Result: binds

B4: anti-TrkA scFv CRB0082 (scFv)
scFv: SYVLTQPPSVSVAPGTTARLSCEATKIGSQRLHWYQQKPGQAPVMVISFDSDRPSGIPDRFSGSRSGNTATLTISGVEAGDEADYYCNSRDSSGYHLVFGGGTKLTVLSGGSTSGSGKPGSGEGSSGTQVQLQQSGPGLVKPSQTLSLTCAISGDSVSSFTVAWNWIRQSPSRGLERLGRTYRRSKDYAEYMRSRLTINADTSKNQLSLQLDSVTPDDTAVYYCARGQNSAFDLWGQRTMVTVSS
notes: From hSPLINT_09 selection
Which results are given for B4?
Kd [1]: 42.1 nM; koff [1]: 8.79e-05 s⁻¹; kon [1]: 2090 M⁻¹ s⁻¹; Kd [2]: 131 nM; koff [2]: 0.000344 s⁻¹; kon [2]: 2630 M⁻¹ s⁻¹

B5: anti-TrkA scFv CRB0069 (scFv)
scFv: QPGLTQPPSASGTPGQRVTISCTGSSSNVGAGYTVHWYQQLPGTAPTLLIYDNNNRPSGVPDRFSGSRSGTSASLAITGLRAEDEADYYCQSYDRSRVYVFGTGTKLTVLSGGSTSGSGKPGSGEGSSGTQVQLQQSGPGLVKPSQTLSLTCAISGDSVSSNSAAWNWIRQSPSRGLERLGRTYYRSKWYNDYAESVKSRIIINSGTSKNQFSLHLNSVTPEDTAVYYCGRAKDGWYDAFDIWGQGTTVTVSS
notes: From hSPLINT_09 selection
Which results are given for B5?
Kd [1]: 5.7 nM; koff [1]: 3.57e-05 s⁻¹; kon [1]: 6270 M⁻¹ s⁻¹; Kd [2]: 1.67 nM; koff [2]: 1.02e-05 s⁻¹; kon [2]: 6120 M⁻¹ s⁻¹; binding result [5]: binds

B6: anti-TrkA scFv CRB0022 (scFv)
scFv: DIVLTQSPALMSASPGEKVTMTCSASSSVSYMYWYQQKPRSSPKPWIYLTSNLASGVPARFSGSGSGTSYSLTISSMEAEDAATYYCQQWSSNPYTFGGRTRLEIKPSGGSTSGSGKPGSGEDSSGAQVQLQQSGAELVKPGASVELSCTASGFNIKDTYMHWVKQRPEQGLEWIGGIDPANGNTIYVPKFQGKATITADTSSNTAYLQLSSLTSEDTAVYYCARGGYDFDYAMDYWGQGTSVTVSS
notes: From mSPLINT selection
With B6 as the binder, how does the Kd [1] read?
The Kd was 3.2 nM.

What about the koff [1] of the same binder?
The koff was 2.94e-05 s⁻¹.

What about the kon [1] of the same binder?
The kon was 9190 M⁻¹ s⁻¹.

And the Kd [2]?
Its Kd is 1.16 nM.

What about the koff [2] of the same binder?
The koff was 1.09e-05 s⁻¹.

What about the kon [2] of the same binder?
Its kon is 9430 M⁻¹ s⁻¹.

Does B6 bind [6]?
Result: no binding (tested: 50 ug/mL)

Does B6 bind [3]?
Result: no binding (tested: 50 ug/mL)

Does B6 bind [4]?
Result: no binding (tested: 50 ug/mL)

Does B6 bind [5]?
Result: binds
